According to the supplement of paper PMC9732359:
± gives the uncertainty stated by the source.

Experiment: protein stability index of a GFP-peptide fusion (yeast GPS) (PSI 1-4); higher = more stable; sorted into four equal gates, so the index is relative within each strain
In short: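 Plasmids isolated from each sorting gate were PCR-amplified and Illumina-sequenced, and barcodes assigned the reads to strains. The gates, four of equal size, were set by GFP/Cherry fluorescence ratio on mid-log cultures in leucine-free medium. These cultures were yeast carrying a pooled library of tiled 17-residue yeast protein peptides fused downstream of GFP on a plasmid that also expresses Cherry. The protein stability index is the sum of every gate's read frequency times its gate number.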

Sequence: LWDSKELEQLVEFNRKV [RPN3]
- protein stability index (doa10∆): 2.97 ± 0.1
- protein stability index (pdr5∆): 2.62 ± 0.093
- protein stability index (san1∆): 3.2 ± 0.068
- protein stability index (ubr1∆): 2.81 ± 0.084

Sequence: LWNQWLKLNTSLPSKLT [SRP68]
- protein stability index (doa10∆): 1.45 ± 0.049
- protein stability index (pdr5∆): 1.51 ± 0.052
- protein stability index (san1∆): 1.36 ± 0.11
- protein stability index (ubr1∆): 1.83 ± 0.037

Sequence: LWVFQAFTCFCIKKIME [SRB8]
- protein stability index (doa10∆): 1.69 ± 0.044
- protein stability index (pdr5∆): 1.52 ± 0.04
- protein stability index (san1∆): 1.27 ± 0.073
- protein stability index (ubr1∆): 1.48 ± 0.037

Sequence: LYDALEPSDLRSWTLTS [YGL100W/SEH1]
- protein stability index (doa10∆): 2.82 ± 0.048
- protein stability index (pdr5∆): 2.79 ± 0.046
- protein stability index (san1∆): 2.78 ± 0.038
- protein stability index (ubr1∆): 3.03 ± 0.049

Sequence: LYNDADVLTLENIQEGT [CDC53]
- protein stability index (doa10∆): 3.18 ± 0.1
- protein stability index (pdr5∆): 3.03 ± 0.087
- protein stability index (san1∆): 3.17 ± 0.044
- protein stability index (ubr1∆): 3.2 ± 0.046

Sequence: LYNKIWTEASSSGAGTV [ECM29]
- protein stability index (doa10∆): 2.12 ± 0.065
- protein stability index (pdr5∆): 1.76 ± 0.058
- protein stability index (san1∆): 2.12 ± 0.081
- protein stability index (ubr1∆): 2.93 ± 0.08

Sequence: LYPIFLLDDKKLMDEDS [YJR042W/NUP85]
- protein stability index (doa10∆): 2.01 ± 0.09
- protein stability index (pdr5∆): 1.84 ± 0.14
- protein stability index (san1∆): 1.38 ± 0.29
- protein stability index (ubr1∆): 1.66 ± 0.057

Sequence: LYQSKGRYMEALALYVD [SRP68]
- protein stability index (doa10∆): 1.86 ± 0.076
- protein stability index (pdr5∆): 1.9 ± 0.14
- protein stability index (san1∆): 1.9 ± 0.15
- protein stability index (ubr1∆): 2 ± 0.11

Sequence: LYTLAQETEGTNRHTLA [SIR3]
- protein stability index (doa10∆): 2.73 ± 0.077
- protein stability index (pdr5∆): 2.09 ± 0.072
- protein stability index (san1∆): 2.2 ± 0.084
- protein stability index (ubr1∆): 2.52 ± 0.059

Sequence: LYVDSESTSSTEEVEAL [MTW1]
- protein stability index (doa10∆): 2.92 ± 0.11
- protein stability index (pdr5∆): 3.76 ± 0.15
- protein stability index (san1∆): 3.14 ± 0.19
- protein stability index (ubr1∆): 3.24 ± 0.11

Sequence: LYVLPSFNIPRLTFKPW [YMR129W/POM152]
- protein stability index (doa10∆): 2.2 ± 0.12
- protein stability index (pdr5∆): 1.7 ± 0.096
- protein stability index (san1∆): 1.69 ± 0.18
- protein stability index (ubr1∆): 1.54 ± 0.096

Sequence: LYYRPHINKKSQLDLFL [GRR1]
- protein stability index (doa10∆): 1.78 ± 0.071
- protein stability index (pdr5∆): 2.17 ± 0.12
- protein stability index (san1∆): 1.28 ± 0.1
- protein stability index (ubr1∆): 1.85 ± 0.093

Sequence: MAESHRLYVKGKHLSYQ [RPL33A]
- protein stability index (doa10∆): 2.71 ± 0.077
- protein stability index (pdr5∆): 2.84 ± 0.068
- protein stability index (san1∆): 2.52 ± 0.073
- protein stability index (ubr1∆): 2.62 ± 0.058

Sequence: MAFQKDAKSSAYSSRFQ [RPL5]
- protein stability index (doa10∆): 2.67 ± 0.11
- protein stability index (pdr5∆): 2.89 ± 0.072
- protein stability index (san1∆): 3.02 ± 0.061
- protein stability index (ubr1∆): 2.92 ± 0.064

Sequence: MAFRKSNVYLSLVNSYI [COB]
- protein stability index (doa10∆): 2 ± 0.049
- protein stability index (pdr5∆): 2.08 ± 0.078
- protein stability index (san1∆): 1.96 ± 0.079
- protein stability index (ubr1∆): 2.36 ± 0.064

Sequence: MALNKVLITDHIEKLEN [CDC53]
- protein stability index (doa10∆): 2.52 ± 0.053
- protein stability index (pdr5∆): 2.14 ± 0.047
- protein stability index (san1∆): 2.15 ± 0.059
- protein stability index (ubr1∆): 2.28 ± 0.052

Sequence: MAPLSLNFKDDKKYKGL [REC8]
- protein stability index (doa10∆): 2.66 ± 0.089
- protein stability index (pdr5∆): 2.61 ± 0.14
- protein stability index (san1∆): 2.47 ± 0.065
- protein stability index (ubr1∆): 2.47 ± 0.075

Sequence: MATLEELDAQTLPGDDE [RPT5]
- protein stability index (doa10∆): 3.31 ± 0.12
- protein stability index (pdr5∆): 3.28 ± 0.15
- protein stability index (san1∆): 3.35 ± 0.13
- protein stability index (ubr1∆): 3.49 ± 0.13

Sequence: MCEQALSALFTISSKPD [YCS4]
- protein stability index (doa10∆): 2.22 ± 0.038
- protein stability index (pdr5∆): 1.72 ± 0.04
- protein stability index (san1∆): 1.87 ± 0.056
- protein stability index (ubr1∆): 1.77 ± 0.032

Sequence: MCQNPMQKPVPFVPVLD [FAS1]
- protein stability index (doa10∆): 1.47 ± 0.039
- protein stability index (pdr5∆): 1.54 ± 0.034
- protein stability index (san1∆): 1.29 ± 0.061
- protein stability index (ubr1∆): 1.52 ± 0.031

Sequence: MDFGVDPSMDPELAMAL [RPN10]
- protein stability index (doa10∆): 2.88 ± 0.077
- protein stability index (pdr5∆): 3.15 ± 0.079
- protein stability index (san1∆): 2.99 ± 0.074
- protein stability index (ubr1∆): 2.84 ± 0.069

Sequence: MDHEEARRKHVSGKILG [RPS22A]
- protein stability index (doa10∆): 2.83 ± 0.28
- protein stability index (pdr5∆): 2.65 ± 0.24
- protein stability index (san1∆): 2.87 ± 0.24
- protein stability index (ubr1∆): 3.02 ± 0.12

Sequence: MDIAERIAVLHQKTKTL [YGL172W/NUP49]
- protein stability index (doa10∆): 2.14 ± 0.076
- protein stability index (pdr5∆): 1.67 ± 0.058
- protein stability index (san1∆): 1.81 ± 0.11
- protein stability index (ubr1∆): 1.51 ± 0.067

Sequence: MDIMEDFLRYINIKYLR [SNF2]
- protein stability index (doa10∆): 1.54 ± 0.039
- protein stability index (pdr5∆): 1.37 ± 0.044
- protein stability index (san1∆): 1.37 ± 0.12
- protein stability index (ubr1∆): 1.3 ± 0.036

Sequence: MDSIIPAGVKLDDLQVI [PGD1]
- protein stability index (doa10∆): 2.5 ± 0.093
- protein stability index (pdr5∆): 3.05 ± 0.091
- protein stability index (san1∆): 2.57 ± 0.061
- protein stability index (ubr1∆): 2.52 ± 0.056

Sequence: MDVDQFDFLDDGTAQLS [YJR042W/NUP85]
- protein stability index (doa10∆): 2.46 ± 0.079
- protein stability index (pdr5∆): 2.98 ± 0.075
- protein stability index (san1∆): 3.32 ± 0.068
- protein stability index (ubr1∆): 2.53 ± 0.063

Sequence: MDVDSVKTTLVSLTQLR [RPC82]
- protein stability index (doa10∆): 2.57 ± 0.1
- protein stability index (pdr5∆): 1.81 ± 0.074
- protein stability index (san1∆): 2.08 ± 0.12
- protein stability index (ubr1∆): 1.5 ± 0.093

Sequence: MEIVANAKESNYTDLIW [MED1]
- protein stability index (doa10∆): 3.27 ± 0.094
- protein stability index (pdr5∆): 3.41 ± 0.16
- protein stability index (san1∆): 3.44 ± 0.078
- protein stability index (ubr1∆): 2.83 ± 0.081

Sequence: MEKLDAKLNHLKKLEKF [SWI3]
- protein stability index (doa10∆): 2.81 ± 0.13
- protein stability index (pdr5∆): 2.7 ± 0.1
- protein stability index (san1∆): 3.02 ± 0.12

Sequence: MFTYSQETQHGNITRGL [RPN2]
- protein stability index (doa10∆): 3.28 ± 0.08
- protein stability index (pdr5∆): 3.12 ± 0.12
- protein stability index (san1∆): 3.13 ± 0.06
- protein stability index (ubr1∆): 3.21 ± 0.046

Sequence: MGAYKYLEELQRKKQSD [RPL15A]
- protein stability index (pdr5∆): 2.75 ± 0.28

Sequence: MGKSAVIFVERATPATL [SRB2]
- protein stability index (doa10∆): 2.36 ± 0.14
- protein stability index (pdr5∆): 1.31 ± 0.076
- protein stability index (san1∆): 1.66 ± 0.2
- protein stability index (ubr1∆): 1.31 ± 0.29

Sequence: MGPPSGKTYMGWWGHMG [QCR8]
- protein stability index (san1∆): 3.13 ± 0.2

Sequence: MGRVRTKTVKRASKALI [RPS17A]
- protein stability index (doa10∆): 3.05 ± 0.12
- protein stability index (pdr5∆): 1.87 ± 0.086
- protein stability index (san1∆): 3.1 ± 0.069
- protein stability index (ubr1∆): 1.52 ± 0.06

Sequence: MGSRRYDSRTTIFSPEG [PRE9]
- protein stability index (doa10∆): 3.36 ± 0.2
- protein stability index (pdr5∆): 3.01 ± 0.17
- protein stability index (san1∆): 2.89 ± 0.19
- protein stability index (ubr1∆): 3.06 ± 0.15

Sequence: MIISGSRDKTIKVWTIK [ASC1]
- protein stability index (doa10∆): 2.48 ± 0.084
- protein stability index (pdr5∆): 2.71 ± 0.092
- protein stability index (san1∆): 2.49 ± 0.11
- protein stability index (ubr1∆): 2.95 ± 0.087

Sequence: MILNYNPSQGVSNSGAQ [UBP6]
- protein stability index (doa10∆): 3.25 ± 0.096
- protein stability index (pdr5∆): 3.37 ± 0.086
- protein stability index (san1∆): 3.14 ± 0.064
- protein stability index (ubr1∆): 3.25 ± 0.055

Sequence: MKAVGEYMKRHPTTIES [SEC65]
- protein stability index (doa10∆): 1.93 ± 0.17
- protein stability index (pdr5∆): 2.24 ± 0.23
- protein stability index (san1∆): 1.64 ± 0.3

Sequence: MKQYRDFLGVASTGSGK [PRP28]
- protein stability index (doa10∆): 2.77 ± 0.1
- protein stability index (pdr5∆): 2.72 ± 0.12
- protein stability index (san1∆): 2.88 ± 0.061
- protein stability index (ubr1∆): 2.93 ± 0.043

Sequence: MKQYSYLMDSKNVRTRI [RRI1]
- protein stability index (pdr5∆): 2.6 ± 0.26
- protein stability index (ubr1∆): 2.94 ± 0.22

Sequence: MKTKTINAQGEEIVVVA [PRP8]
- protein stability index (doa10∆): 1.72 ± 0.089
- protein stability index (pdr5∆): 1.92 ± 0.12
- protein stability index (san1∆): 1.36 ± 0.19
- protein stability index (ubr1∆): 1.52 ± 0.06

Sequence: MKVFVTKHLMPQDLTFN [RPB7]
- protein stability index (doa10∆): 2.96 ± 0.062
- protein stability index (pdr5∆): 2.87 ± 0.054
- protein stability index (san1∆): 2.54 ± 0.066
- protein stability index (ubr1∆): 2.94 ± 0.051

Sequence: MLKQHLFKYQGHIGAYL [PUP1]
- protein stability index (doa10∆): 2.17 ± 0.064
- protein stability index (pdr5∆): 2.34 ± 0.063
- protein stability index (san1∆): 2.25 ± 0.092
- protein stability index (ubr1∆): 2.25 ± 0.071

Sequence: MMCDFGTGNNNKLNFIV [DIB1]
- protein stability index (doa10∆): 1.13 ± 0.084
- protein stability index (pdr5∆): 1.22 ± 0.048
- protein stability index (san1∆): 1.96 ± 0.15
- protein stability index (ubr1∆): 1.6 ± 0.061

Sequence: MNIIQQQQQQNTNNNDT [GAL11]
- protein stability index (doa10∆): 2.43 ± 0.042
- protein stability index (pdr5∆): 2.63 ± 0.047
- protein stability index (san1∆): 2.46 ± 0.044
- protein stability index (ubr1∆): 2.52 ± 0.04

Sequence: MNRPGARVTRRKRCKGT [RPL11A]
- protein stability index (doa10∆): 3.05 ± 0.21
- protein stability index (pdr5∆): 3.25 ± 0.13
- protein stability index (san1∆): 3.46 ± 0.081
- protein stability index (ubr1∆): 3.15 ± 0.13

Sequence: MPPKFDPNEVKYLYLRA [RPL12A]
- protein stability index (doa10∆): 2 ± 0.093
- protein stability index (pdr5∆): 2.09 ± 0.17
- protein stability index (san1∆): 2.98 ± 0.2
- protein stability index (ubr1∆): 1.78 ± 0.079

Sequence: MQENDKINQERLERRIN [CSI1]
- protein stability index (doa10∆): 1.62 ± 0.065
- protein stability index (pdr5∆): 1.92 ± 0.062
- protein stability index (san1∆): 1.26 ± 0.1
- protein stability index (ubr1∆): 1.27 ± 0.044

Sequence: MQFAKSKTVKVLKTLIE [RPN6]
- protein stability index (doa10∆): 1.24 ± 0.071
- protein stability index (pdr5∆): 1.43 ± 0.077
- protein stability index (san1∆): 2.51 ± 0.11
- protein stability index (ubr1∆): 2.26 ± 0.093

Sequence: MQHNPLAGKRGPKSGST [PGD1]
- protein stability index (doa10∆): 2.94 ± 0.064
- protein stability index (pdr5∆): 2.74 ± 0.057
- protein stability index (san1∆): 2.85 ± 0.063
- protein stability index (ubr1∆): 2.96 ± 0.048

Sequence: MQVYLVPIERVAQLKPF [RPC37]
- protein stability index (doa10∆): 1.9 ± 0.079
- protein stability index (pdr5∆): 1.77 ± 0.065
- protein stability index (san1∆): 1.87 ± 0.063
- protein stability index (ubr1∆): 2.54 ± 0.058
